# Experimental data taken from US7648964B2, “Use of lacritin in promoting ocular cell survival” (University of Virginia Patent Foundation, priority 2004, dated 2010).
# B1: lacritin: recombinant human lacritin from E. coli; mature 119 residue fragment (SEQ ID NO:10) of native lacritin SEQ ID NO:4 (protein, listed as Homo sapiens)
# chain: EDASSDSTGADPAQEAGTSKPNEEISGPAEPASPPETTTTAQETSAAAVQGTAKVTSSRQELNPLKSIVEKSILLTEQALAKAGKGMHGGVPGGKQFIENGSEFAQKLLKKFSLLKPWA
# Experiments:
# [1] = tested on: Sertoli (TM3) cells; assay: 3H-thymidine uptake mitogenesis assay; type: cell-based, mouse
# Procedure: (§1) For phosphotyrosine blotting and mitogenesis assays, cells in serum-containing media were seeded overnight in 24-well plates at a density of 0.5×10^5 cells/mm^2 corresponding to 20-30% confluency after cell attachment, incubated in serum-free media without supplements for 24 h (phosphotyrosine) or washed with serum-free media without supplements three times (mitogenesis) and incubated with lacritin (1-1000 nM), or positive controls EGF (1.6 nM) and 10% fetal bovine serum, or negative controls bovine serum albumin or no additive in serum-free media without supplements for the indicated times (phosphotyrosine) or 30 h (mitogenesis). […] After washing, bound antibodies were detected with peroxidase-labeled secondary antibody and ECL. […] Incorporation was stopped with ice-cold phosphate buffered saline and followed by addition of cold and then room temperature trichloracetic acid (10%) for 10 min each, washing of cells with phosphate buffered saline, solubilization with 1 N sodium hydroxide, neutralization with 1 N hydrochloric acid, addition of scintillation fluid and then quantitation in a scintillation counter. […] Seventy-two hours post-transfection, mitogenesis was assessed by co-addition of 10 […] lacritin and [^3H]-thymidine (2 mCi/ml) (Amersham, Piscataway N.J.) for 24 hrs. […]
# [2] = tested on: Leydig (TM4) cells; assay: 3H-thymidine uptake mitogenesis assay; type: cell-based, mouse
# Procedure: as §1
# [3] = tested on: PLD; assay: Endogenous PLD activity in HSG cells; type: cell-based, human; conditions: bell-shaped activation curve
# Procedure: We measured endogenous PLD activity after lacritin addition and obtained a bell-shaped activation curve that was optimal at 10 nM lacritin, thus recapitulating the same dose dependency observed for mitogenesis, PKCα translocation and PKCα dephosphorylation. To determine whether PKCα was upstream of PLD in lacritin signaling, cells were transfected with D7 siRNA. […] Transiently hypophosphorylated perinuclear Golgi PKCα appears to have at least two roles. It complexes with PLCγ2 leading to IP3 generation and calcium mobilization. It also activates PLD1.
# [4] = tested on: MUC16; assay: MUC16 blot of human corneal epithelial cells; type: cell-based; conditions: 10 nM
# From the text: MUC16 is an important mucin on the ocular surface. Mucin contributes to the tear film, is important for wetting the ocular surface, and is reduced in Sjogren's syndrome patients. […] Cells were blotted for MUC16.
# [5] = tested on: 48 kDa band in rat lacrimal cells; assay: Tyrosine phosphorylation of 48 kDa band, rat lacrimal cells; type: cell-based
# Procedure: Freshly isolated rat lacrimal acinar cells, and HSG (human salivary gland) ductal and HCE (human corneal epithelial) cell lines were used to study lacritin function. For secretion studies, rat acinar cells were plated serum-free overnight on wells co-coated with 0.05 μM laminin 1 (to ensure adhesion) and 0 to 20 μM lacritin, or alternatively with laminin-1 (0.05 μM) and treated the next day with serum-free medium containing 0 to 162 ng/ml of soluble lacritin for four hours. Unstimulated and stimulated (carbachol 10^−4 M/VIP 10^−8 M) secretions were then collected, assessed (peroxidase assay) and normalized to μg cellular DNA. To study tyrosine phosphorylation, overnight serum-free cultures of both rat lacrimal acinar and HSG cells were washed and treated with 10 ng/ml of soluble lacritin for 0.5, 2.5, 10, and 30 minutes. Py(20) anti-phosphotyrosine antibody immunoprecipitation of cell lysates was then examined in Western blots of 7% SDS PAGE gels using Py(20) and ECL for detection. […] Using an inverted Zeiss 510 LSM for visualization, 50 second baseline images were first recorded. While the laser was running, lacritin was added (final concentration 4 and 40 ng/ml) and the response continually monitored every 786 msec for a minimum of 200 sec.
# [6] = tested on: mouse fibroblast (NIH/3T3) cells; assay: 3H-thymidine uptake mitogenesis assay; type: cell-based
# [7] = tested on: human glioma (U-251-MG) cells; assay: 3H-thymidine uptake mitogenesis assay; type: cell-based; conditions: even at higher doses
# [8] = tested on: human epidermal (A431) cells; assay: 3H-thymidine uptake mitogenesis assay; type: cell-based
# [9] = tested on: human glioma (U-1242-MG) cells; assay: 3H-thymidine uptake mitogenesis assay; type: cell-based; conditions: even at higher doses
molecule,measurement,setting,value
B1,mitogenesis,[1],not mitogenic
same,mitogenesis,[2],not mitogenic
same,concentration of optimal PLD activation,[3],10 nM
same,MUC16 secretion,[4],greatly enhanced
same,tyrosine phosphorylation of a 48 kDa band,[5],promoted the transient tyrosine phosphorylation
same,mitogenesis,[6],not mitogenic
same,mitogenesis,[7],not mitogenic
same,mitogenesis,[8],not mitogenic
same,mitogenesis,[9],not mitogenic
